Measurements: publication PMC12416549 (2024)

T1: TNFR1 (Homo sapiens, UniProt P19438)
T1 chain: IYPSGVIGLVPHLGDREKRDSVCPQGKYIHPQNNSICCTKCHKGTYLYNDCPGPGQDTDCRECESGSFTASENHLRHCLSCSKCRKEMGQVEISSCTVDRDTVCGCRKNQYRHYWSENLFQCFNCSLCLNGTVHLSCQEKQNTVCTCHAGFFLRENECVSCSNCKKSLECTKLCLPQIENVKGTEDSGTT


Molecular target: T1, TNFR1
Experiment: yeast display SC50

Row | apparent Kd (screen) [nM] | Binder
1 | 0.653 | M1L (designed binder) LTLQELLREEALRRAEAEAFRYALELLAEKFPEQKEYLLDLAEEIESQIRSLSGVDVEDVRKFLDKEWAWVKELLAEHPAELAEVEAARAARLAELRAEVEAKVAA
2 | 0.79 | D65S (designed binder) MTLQELLREEALRRAEAEAFRYALELLAEKFPEQKEYLLDLAEEIESQIRSLSGVDVEDVRKFLSKEWAWVKELLAEHPAELAEVEAARAARLAELRAEVEAKVAA
3 | 4.83 | L6S (designed binder) MTLQESLREEALRRAEAEAFRYALELLAEKFPEQKEYLLDLAEEIESQIRSLSGVDVEDVRKFLDKEWAWVKELLAEHPAELAEVEAARAARLAELRAEVEAKVAA
4 | 0.229 | A17E (designed binder) MTLQELLREEALRRAEEEAFRYALELLAEKFPEQKEYLLDLAEEIESQIRSLSGVDVEDVRKFLDKEWAWVKELLAEHPAELAEVEAARAARLAELRAEVEAKVAA
5 | 0.653 | L75C (designed binder) MTLQELLREEALRRAEAEAFRYALELLAEKFPEQKEYLLDLAEEIESQIRSLSGVDVEDVRKFLDKEWAWVKELCAEHPAELAEVEAARAARLAELRAEVEAKVAA
6 | 0.539 | D59S (designed binder) MTLQELLREEALRRAEAEAFRYALELLAEKFPEQKEYLLDLAEEIESQIRSLSGVDVESVRKFLDKEWAWVKELLAEHPAELAEVEAARAARLAELRAEVEAKVAA
7 | 0.539 | L27C (designed binder) MTLQELLREEALRRAEAEAFRYALELCAEKFPEQKEYLLDLAEEIESQIRSLSGVDVEDVRKFLDKEWAWVKELLAEHPAELAEVEAARAARLAELRAEVEAKVAA
8 | 0.539 | I49S (designed binder) MTLQELLREEALRRAEAEAFRYALELLAEKFPEQKEYLLDLAEEIESQSRSLSGVDVEDVRKFLDKEWAWVKELLAEHPAELAEVEAARAARLAELRAEVEAKVAA
9 | 0.653 | E95G (designed binder) MTLQELLREEALRRAEAEAFRYALELLAEKFPEQKEYLLDLAEEIESQIRSLSGVDVEDVRKFLDKEWAWVKELLAEHPAELAEVEAARAARLAGLRAEVEAKVAA
10 | 0.446 | A91R (designed binder) MTLQELLREEALRRAEAEAFRYALELLAEKFPEQKEYLLDLAEEIESQIRSLSGVDVEDVRKFLDKEWAWVKELLAEHPAELAEVEAARARRLAELRAEVEAKVAA
11 | 0.539 | A98P (designed binder) MTLQELLREEALRRAEAEAFRYALELLAEKFPEQKEYLLDLAEEIESQIRSLSGVDVEDVRKFLDKEWAWVKELLAEHPAELAEVEAARAARLAELRPEVEAKVAA
12 | 1.16 | L39K (designed binder) MTLQELLREEALRRAEAEAFRYALELLAEKFPEQKEYLKDLAEEIESQIRSLSGVDVEDVRKFLDKEWAWVKELLAEHPAELAEVEAARAARLAELRAEVEAKVAA
13 | 1.05 | E18P (designed binder) MTLQELLREEALRRAEAPAFRYALELLAEKFPEQKEYLLDLAEEIESQIRSLSGVDVEDVRKFLDKEWAWVKELLAEHPAELAEVEAARAARLAELRAEVEAKVAA
14 | 0.539 | E29V (designed binder) MTLQELLREEALRRAEAEAFRYALELLAVKFPEQKEYLLDLAEEIESQIRSLSGVDVEDVRKFLDKEWAWVKELLAEHPAELAEVEAARAARLAELRAEVEAKVAA
15 | 1.27 | A23H (designed binder) MTLQELLREEALRRAEAEAFRYHLELLAEKFPEQKEYLLDLAEEIESQIRSLSGVDVEDVRKFLDKEWAWVKELLAEHPAELAEVEAARAARLAELRAEVEAKVAA
16 | 0.446 | E95W (designed binder) MTLQELLREEALRRAEAEAFRYALELLAEKFPEQKEYLLDLAEEIESQIRSLSGVDVEDVRKFLDKEWAWVKELLAEHPAELAEVEAARAARLAWLRAEVEAKVAA
17 | 5.31 | D40V (designed binder) MTLQELLREEALRRAEAEAFRYALELLAEKFPEQKEYLLVLAEEIESQIRSLSGVDVEDVRKFLDKEWAWVKELLAEHPAELAEVEAARAARLAELRAEVEAKVAA
18 | 1.69 | S51N (designed binder) MTLQELLREEALRRAEAEAFRYALELLAEKFPEQKEYLLDLAEEIESQIRNLSGVDVEDVRKFLDKEWAWVKELLAEHPAELAEVEAARAARLAELRAEVEAKVAA

Row | apparent Kd (screen) [nM] | Binder
19 | 0.653 | V71C (designed binder) MTLQELLREEALRRAEAEAFRYALELLAEKFPEQKEYLLDLAEEIESQIRSLSGVDVEDVRKFLDKEWAWCKELLAEHPAELAEVEAARAARLAELRAEVEAKVAA
20 | 0.593 | E58H (designed binder) MTLQELLREEALRRAEAEAFRYALELLAEKFPEQKEYLLDLAEEIESQIRSLSGVDVHDVRKFLDKEWAWVKELLAEHPAELAEVEAARAARLAELRAEVEAKVAA
21 | 0.49 | E81S (designed binder) MTLQELLREEALRRAEAEAFRYALELLAEKFPEQKEYLLDLAEEIESQIRSLSGVDVEDVRKFLDKEWAWVKELLAEHPASLAEVEAARAARLAELRAEVEAKVAA
22 | 0.49 | A15T (designed binder) MTLQELLREEALRRTEAEAFRYALELLAEKFPEQKEYLLDLAEEIESQIRSLSGVDVEDVRKFLDKEWAWVKELLAEHPAELAEVEAARAARLAELRAEVEAKVAA
23 | 0.593 | V104K (designed binder) MTLQELLREEALRRAEAEAFRYALELLAEKFPEQKEYLLDLAEEIESQIRSLSGVDVEDVRKFLDKEWAWVKELLAEHPAELAEVEAARAARLAELRAEVEAKKAA
24 | 0.446 | E25K (designed binder) MTLQELLREEALRRAEAEAFRYALKLLAEKFPEQKEYLLDLAEEIESQIRSLSGVDVEDVRKFLDKEWAWVKELLAEHPAELAEVEAARAARLAELRAEVEAKVAA
25 | 0.593 | A88R (designed binder) MTLQELLREEALRRAEAEAFRYALELLAEKFPEQKEYLLDLAEEIESQIRSLSGVDVEDVRKFLDKEWAWVKELLAEHPAELAEVEARRAARLAELRAEVEAKVAA
26 | 0.539 | L93I (designed binder) MTLQELLREEALRRAEAEAFRYALELLAEKFPEQKEYLLDLAEEIESQIRSLSGVDVEDVRKFLDKEWAWVKELLAEHPAELAEVEAARAARIAELRAEVEAKVAA
27 | 0.869 | L93V (designed binder) MTLQELLREEALRRAEAEAFRYALELLAEKFPEQKEYLLDLAEEIESQIRSLSGVDVEDVRKFLDKEWAWVKELLAEHPAELAEVEAARAARVAELRAEVEAKVAA
28 | 0.653 | A90N (designed binder) MTLQELLREEALRRAEAEAFRYALELLAEKFPEQKEYLLDLAEEIESQIRSLSGVDVEDVRKFLDKEWAWVKELLAEHPAELAEVEAARNARLAELRAEVEAKVAA
29 | 0.593 | L12F (designed binder) MTLQELLREEAFRRAEAEAFRYALELLAEKFPEQKEYLLDLAEEIESQIRSLSGVDVEDVRKFLDKEWAWVKELLAEHPAELAEVEAARAARLAELRAEVEAKVAA
30 | 15.2 | I45Q (designed binder) MTLQELLREEALRRAEAEAFRYALELLAEKFPEQKEYLLDLAEEQESQIRSLSGVDVEDVRKFLDKEWAWVKELLAEHPAELAEVEAARAARLAELRAEVEAKVAA
31 | 0.539 | R8W (designed binder) MTLQELLWEEALRRAEAEAFRYALELLAEKFPEQKEYLLDLAEEIESQIRSLSGVDVEDVRKFLDKEWAWVKELLAEHPAELAEVEAARAARLAELRAEVEAKVAA
32 | 0.718 | V100R (designed binder) MTLQELLREEALRRAEAEAFRYALELLAEKFPEQKEYLLDLAEEIESQIRSLSGVDVEDVRKFLDKEWAWVKELLAEHPAELAEVEAARAARLAELRAEREAKVAA
33 | 2.05 | A42L (designed binder) MTLQELLREEALRRAEAEAFRYALELLAEKFPEQKEYLLDLLEEIESQIRSLSGVDVEDVRKFLDKEWAWVKELLAEHPAELAEVEAARAARLAELRAEVEAKVAA
34 | 0.539 | L75H (designed binder) MTLQELLREEALRRAEAEAFRYALELLAEKFPEQKEYLLDLAEEIESQIRSLSGVDVEDVRKFLDKEWAWVKELHAEHPAELAEVEAARAARLAELRAEVEAKVAA
35 | 5.31 | L64E (designed binder) MTLQELLREEALRRAEAEAFRYALELLAEKFPEQKEYLLDLAEEIESQIRSLSGVDVEDVRKFEDKEWAWVKELLAEHPAELAEVEAARAARLAELRAEVEAKVAA
